Laboratory results taken from the supplement of paper PMC10126150.
± gives the standard deviation of the averaged measurements.

Test system: ATP
Experiment: switch fluorescence ratio, 500 uM ATP over buffer (Cy3 cluster intensity, sum of 5 cycles each) (fold (ratio)); higher = stronger signal-on switching upon ATP binding; sequences stand for … in TCGTCGGCAGCGTCAGATGTGTATAAGAGACAGTTTTTTTTTTTTTTTTTTTTTTTTT…TC
Conditions: aptamer strand: ATP DNA aptamer (quencher-CACCTGGGGGAGTATTGCGGAGGAAGG + anchor), 100 nM annealed; ATP concentration: 500 uM
Procedure, shortened: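 Clusters with intensities outside 100-1000 RFU were excluded. The remaining Cy3-labelled switching-strand clusters on a modified Illumina MiSeq flow-cell had been annealed to 100 nM quencher-labelled ATP aptamer and imaged in selection buffer, then after 15 min with 500 uM ATP at 22 °C, for five cycles separated by NaOH stripping and re-annealing. The fluorescence ratio, averaged per switch-domain sequence, is each cluster's summed target-cycle Cy3 intensity over its summed buffer-cycle Cy3 intensity.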
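Further: ATP exposure 15 min at 22 °C before imaging.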

TAGAAGGTTG
switch fluorescence ratio: 0.972 ± 0.018

TAGAAGTAGG
switch fluorescence ratio: 1.01 ± 0.037

TAGAATACTT
switch fluorescence ratio: 0.996 ± 0.016

TAGAATCAGC
switch fluorescence ratio: 0.99 ± 0.07

TAGACAAGAT
switch fluorescence ratio: 1.04 ± 0.0028

TAGACCTCCC
switch fluorescence ratio: 1.81 ± 0.16

TAGACGGGGA
switch fluorescence ratio: 0.984 ± 0.046

TAGAGAAGCA
switch fluorescence ratio: 1.012 ± 0.0061

TAGAGAATCG
switch fluorescence ratio: 1.065 ± 0.0062

TAGAGCAGGT
switch fluorescence ratio: 1.03 ± 0.011

TAGAGGCAGC
switch fluorescence ratio: 0.999 ± 0.044

TAGAGGCCGG
switch fluorescence ratio: 1 ± 0.003

TAGAGGCTGA
switch fluorescence ratio: 0.9937 ± 0.0054

TAGAGGGT
switch fluorescence ratio: 0.9989 ± 0.0016

TAGAGTGGGG
switch fluorescence ratio: 0.994 ± 0.023

TAGATAATGC
switch fluorescence ratio: 1.075 ± 0.0049

TAGATATCTG
switch fluorescence ratio: 0.974 ± 0.0098

TAGATATGTA
switch fluorescence ratio: 1.02 ± 0.043

TAGATCGTTG
switch fluorescence ratio: 0.977 ± 0.04

TAGATGAGCA
switch fluorescence ratio: 0.965 ± 0.07

TAGATGCATG
switch fluorescence ratio: 1 ± 0.031

TAGATGGCGG
switch fluorescence ratio: 1 ± 0.013

TAGATGTCCG
switch fluorescence ratio: 0.922 ± 0.098

TAGATTGTA
switch fluorescence ratio: 1.01 ± 0.029

TAGATTTTAT
switch fluorescence ratio: 1.01 ± 0.042

TAGATTTTTG
switch fluorescence ratio: 0.982 ± 0.036

TAGCAATGGC
switch fluorescence ratio: 2.42 ± 0.14

TAGCACGCGG
switch fluorescence ratio: 0.9748 ± 0.0041

TAGCAGGACT
switch fluorescence ratio: 1.76 ± 0.22

TAGCATCTGT
switch fluorescence ratio: 1 ± 0.03

TAGCATGGGG
switch fluorescence ratio: 0.991 ± 0.016

TAGCATGGTA
switch fluorescence ratio: 0.976 ± 0.049

TAGCATTCAT
switch fluorescence ratio: 0.994 ± 0.0072

TAGCCGACGG
switch fluorescence ratio: 1.03 ± 0.058

TAGCCTAATG
switch fluorescence ratio: 1.0049 ± 0.00065

TAGCCTAGGT
switch fluorescence ratio: 1.02 ± 0.017

TAGCCTATTG
switch fluorescence ratio: 0.979 ± 0.038

TAGCCTGTTG
switch fluorescence ratio: 0.9667 ± 0.002

TAGCGCTGCC
switch fluorescence ratio: 0.984 ± 0.012

TAGCGGAAGT
switch fluorescence ratio: 0.999 ± 0.017

TAGCGGCGT
switch fluorescence ratio: 0.9938 ± 0.0097

TAGCGGGATT
switch fluorescence ratio: 1.02 ± 0.033

TAGCGTGAGC
switch fluorescence ratio: 1.02 ± 0.04

TAGCTAGATG
switch fluorescence ratio: 1.02 ± 0.022

TAGCTATTGT
switch fluorescence ratio: 0.984 ± 0.012

TAGCTCAGGG
switch fluorescence ratio: 1.065 ± 0.0032

TAGCTGACTG
switch fluorescence ratio: 1.02 ± 0.04

TAGCTGGATA
switch fluorescence ratio: 0.9837 ± 0.005

TAGCTTCAC
switch fluorescence ratio: 1.142 ± 0.0084

TAGCTTGGGA
switch fluorescence ratio: 1.01 ± 0.026

TAGCTTGGGG
switch fluorescence ratio: 0.9985 ± 0.0046

TAGCTTTAAC
switch fluorescence ratio: 1.0888 ± 0.00092

TAGGAAAGGC
switch fluorescence ratio: 0.982 ± 0.027

TAGGAAATCT
switch fluorescence ratio: 1.03 ± 0.017

TAGGAAATGT
switch fluorescence ratio: 1.07 ± 0.087

TAGGAAGAGG
switch fluorescence ratio: 0.986 ± 0.0068

TAGGAATTTG
switch fluorescence ratio: 0.998 ± 0.037

TAGGAGAGGG
switch fluorescence ratio: 0.968 ± 0.034

TAGGAGGAGG
switch fluorescence ratio: 0.984 ± 0.011

TAGGAGGCGC
switch fluorescence ratio: 0.937 ± 0.064

TAGGAGTGAG
switch fluorescence ratio: 0.979 ± 0.026

TAGGATAGTG
switch fluorescence ratio: 0.978 ± 0.043

TAGGATCCC
switch fluorescence ratio: 0.981 ± 0.026

TAGGATCGGA
switch fluorescence ratio: 0.96 ± 0.032

TAGGATGGCC
switch fluorescence ratio: 0.9522 ± 0.0012

TAGGATTGGG
switch fluorescence ratio: 0.9894 ± 0.0053

TAGGATTTAG
switch fluorescence ratio: 0.994 ± 0.039

TAGGATTTTT
switch fluorescence ratio: 1.026 ± 0.0081

TAGGCACCGA
switch fluorescence ratio: 1.03 ± 0.053

TAGGCACCTG
switch fluorescence ratio: 1.0679 ± 0.00092

TAGGCCATAG
switch fluorescence ratio: 1.008 ± 0.0055

TAGGCGTAGG
switch fluorescence ratio: 0.9876 ± 0.0018

TAGGCTAGGC
switch fluorescence ratio: 0.971 ± 0.022

TAGGCTCGG
switch fluorescence ratio: 1.014 ± 0.0019

TAGGCTCGGG
switch fluorescence ratio: 0.99 ± 0.038

TAGGCTCTTT
switch fluorescence ratio: 0.9777 ± 0.008

TAGGCTTTAA
switch fluorescence ratio: 0.976 ± 0.011

TAGGGAATGT
switch fluorescence ratio: 1 ± 0.019

TAGGGAATTG
switch fluorescence ratio: 1.01 ± 0.011

TAGGGACAGG
switch fluorescence ratio: 0.99 ± 0.038

TAGGGATCGT
switch fluorescence ratio: 0.98 ± 0.051

TAGGGATGAT
switch fluorescence ratio: 0.9705 ± 0.0026

TAGGGATTCT
switch fluorescence ratio: 0.995 ± 0.026

TAGGGGAAGA
switch fluorescence ratio: 1.003 ± 0.0076

TAGGGGATGC
switch fluorescence ratio: 1 ± 0.015

TAGGGGCGCG
switch fluorescence ratio: 0.982 ± 0.078

TAGGGGGAAA
switch fluorescence ratio: 1.01 ± 0.024

TAGGGGGAAC
switch fluorescence ratio: 1.01 ± 0.022

TAGGGGGAT
switch fluorescence ratio: 1.01 ± 0.011

TAGGGGGCAG
switch fluorescence ratio: 1 ± 0.033

TAGGGGGGCG
switch fluorescence ratio: 1.01 ± 0.085

TAGGGGGTTA
switch fluorescence ratio: 0.992 ± 0.046

TAGGGGTAGA
switch fluorescence ratio: 1.017 ± 0.0054

TAGGGGTCGG
switch fluorescence ratio: 0.981 ± 0.048

TAGGGGTGCA
switch fluorescence ratio: 1.079 ± 0.009

TAGGGGTGTT
switch fluorescence ratio: 1.06 ± 0.12

TAGGGGTTTT
switch fluorescence ratio: 1.01 ± 0.024

TAGGGTAAGG
switch fluorescence ratio: 0.97 ± 0.035

TAGGGTAATT
switch fluorescence ratio: 0.9965 ± 0.0041

TAGGGTAGCG
switch fluorescence ratio: 0.99 ± 0.012

TAGGGTATG
switch fluorescence ratio: 0.983 ± 0.053

TAGGGTCGGG
switch fluorescence ratio: 0.9466 ± 0.0037

TAGGGTCTGT
switch fluorescence ratio: 0.999 ± 0.022

TAGGGTGCGG
switch fluorescence ratio: 1.03 ± 0.021

TAGGGTGCGT
switch fluorescence ratio: 1 ± 0.027

TAGGGTGCTT
switch fluorescence ratio: 1.04 ± 0.036

TAGGGTTCTT
switch fluorescence ratio: 1.03 ± 0.029

TAGGTAAGGT
switch fluorescence ratio: 1.03 ± 0.029

TAGGTAGAGT
switch fluorescence ratio: 0.9899 ± 0.006

TAGGTAGCGG
switch fluorescence ratio: 0.9996 ± 0.0076

TAGGTATATC
switch fluorescence ratio: 0.9843 ± 0.006

TAGGTATTGT
switch fluorescence ratio: 1.003 ± 0.0091

TAGGTGACTG
switch fluorescence ratio: 0.982 ± 0.037

TAGGTGCATA
switch fluorescence ratio: 1.03 ± 0.043

TAGGTGGCGC
switch fluorescence ratio: 1.08 ± 0.013

TAGGTGTCAT
switch fluorescence ratio: 1.15 ± 0.32

TAGGTGTTTT
switch fluorescence ratio: 1.05 ± 0.047

TAGGTTGAGT
switch fluorescence ratio: 0.996 ± 0.061

TAGGTTGGTC
switch fluorescence ratio: 1.02 ± 0.064

TAGGTTTGCG
switch fluorescence ratio: 0.994 ± 0.053

TAGTAAATCG
switch fluorescence ratio: 1.007 ± 0.0078

TAGTAAATGG
switch fluorescence ratio: 0.999 ± 0.017

TAGTAATCTT
switch fluorescence ratio: 1.003 ± 0.0092

TAGTAATGTG
switch fluorescence ratio: 0.993 ± 0.022

TAGTAATTGG
switch fluorescence ratio: 0.987 ± 0.029

TAGTACTGTG
switch fluorescence ratio: 0.998 ± 0.017

TAGTAGATGT
switch fluorescence ratio: 1.01 ± 0.036

TAGTAGGGGA
switch fluorescence ratio: 1.01 ± 0.039

TAGTATGGTA
switch fluorescence ratio: 1.01 ± 0.011

TAGTATTAGA
switch fluorescence ratio: 0.993 ± 0.031

TAGTCATGCG
switch fluorescence ratio: 1.04 ± 0.026

TAGTCCAAAT
switch fluorescence ratio: 0.9738 ± 0.0018

TAGTCGAGAT
switch fluorescence ratio: 0.989 ± 0.029

TAGTCGCCGA
switch fluorescence ratio: 0.986 ± 0.017

TAGTCGGCGC
switch fluorescence ratio: 1 ± 0.047

TAGTCTAGGT
switch fluorescence ratio: 1.02 ± 0.025

TAGTCTGTTC
switch fluorescence ratio: 1.01 ± 0.045

TAGTCTTTAG
switch fluorescence ratio: 1.01 ± 0.0072

TAGTGAGGGT
switch fluorescence ratio: 1.01 ± 0.021

TAGTGAGTAC
switch fluorescence ratio: 0.93 ± 0.11

TAGTGATACG
switch fluorescence ratio: 0.986 ± 0.05

TAGTGATGGT
switch fluorescence ratio: 0.973 ± 0.029

TAGTGGAAAA
switch fluorescence ratio: 1.02 ± 0.077

TAGTGGATGG
switch fluorescence ratio: 1 ± 0.029

TAGTGGGAAT
switch fluorescence ratio: 0.968 ± 0.032

TAGTGGGGAC
switch fluorescence ratio: 0.9677 ± 0.0027

TAGTGTAGGC
switch fluorescence ratio: 1.03 ± 0.014

TAGTGTATTC
switch fluorescence ratio: 0.989 ± 0.026

TAGTGTCTAG
switch fluorescence ratio: 0.97 ± 0.07

TAGTGTGGG
switch fluorescence ratio: 0.99 ± 0.024

TAGTGTTTGG
switch fluorescence ratio: 1.02 ± 0.073

TAGTTAATTT
switch fluorescence ratio: 1.01 ± 0.034

TAGTTACCCG
switch fluorescence ratio: 0.979 ± 0.045

TAGTTACTGG
switch fluorescence ratio: 1.05 ± 0.021

TAGTTAGGAG
switch fluorescence ratio: 0.9945 ± 0.0081

TAGTTAGGCG
switch fluorescence ratio: 0.959 ± 0.028

TAGTTATGTT
switch fluorescence ratio: 0.96389 ± 0.00072
